Tested on: six V600E BRAF melanoma cell lines
Experiment: Screening of recombinant RTK ligands for ability to confer resistance to BRAFi (PLX4720) or MEKi (PD184352) (Table 4)
Format: cell-based, human
Set-up: ability of recombinant RTK ligand to confer resistance / ability of recombinant RTK ligand to confer resistance (screening value): scale not given here
How it was run: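 Six V600E BRAF melanoma lines treated with PLX4720 or PD184352 after addition of 22 recombinant RTK ligands, scored for drug resistance. Activation of selected RTKs confirmed by western blotting and high-throughput tyrosine kinase phosphorylation profiling.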

B1: BDNF (protein, UniProt P23560 19-247, looked up)
Neurotrophic factor BDNF …: APMKEANIRGQGGLAYPGVRTHGTLESVNGPKAGSRGLTSLADTFEHVIEELLDEDQKVRPNEENNKDADLYTSRVMLSSQVPLEPPLLFLLEEYKNYLDAANMSMRVRRHSDPARRGELSVCDSISEWVTAADKKTAVDMSGGTVTVLEKVPVSKGQLKQYFYETKCNPMGYTKEGCRGIDKRHWNSQCRTTQSYVRALTMDSKKRIGWRFIRIDTSCVCTLTIKRGR
A2058, PD184352 - 1 uM, ligand 0.4 ng/ml
  ability of recombinant RTK ligand to confer resistance: 0.99
A2058, PD184352 - 1 uM, ligand 1.6 ng/ml
  ability of recombinant RTK ligand to confer resistance: 0.97
A2058, PD184352 - 1 uM, ligand 6.25 ng/ml
  ability of recombinant RTK ligand to confer resistance: 0.94
A2058, PD184352 - 1 uM, ligand 25 ng/ml
  ability of recombinant RTK ligand to confer resistance: 1.03
A2058, PD184352 - 1 uM, ligand 100 ng/ml
  ability of recombinant RTK ligand to confer resistance: 1.10
A2058, PLX4720 - 2 uM, ligand 0.4 ng/ml
  ability of recombinant RTK ligand to confer resistance: 1.00
A2058, PLX4720 - 2 uM, ligand 1.6 ng/ml
  ability of recombinant RTK ligand to confer resistance: 0.95
A2058, PLX4720 - 2 uM, ligand 6.25 ng/ml
  ability of recombinant RTK ligand to confer resistance: 0.95
A2058, PLX4720 - 2 uM, ligand 25 ng/ml
  ability of recombinant RTK ligand to confer resistance: 0.98
A2058, PLX4720 - 2 uM, ligand 100 ng/ml
  ability of recombinant RTK ligand to confer resistance: 1.15
C32, PD184352 - 1 uM, ligand 0.4 ng/ml
  ability of recombinant RTK ligand to confer resistance: 1.03
C32, PD184352 - 1 uM, ligand 1.6 ng/ml
  ability of recombinant RTK ligand to confer resistance: 1.01
C32, PD184352 - 1 uM, ligand 6.25 ng/ml
  ability of recombinant RTK ligand to confer resistance: 1.06
C32, PD184352 - 1 uM, ligand 25 ng/ml
  ability of recombinant RTK ligand to confer resistance: 1.03
C32, PD184352 - 1 uM, ligand 100 ng/ml
  ability of recombinant RTK ligand to confer resistance: 0.95
C32, PLX4720 - 2 uM, ligand 0.4 ng/ml
  ability of recombinant RTK ligand to confer resistance: 1.09
C32, PLX4720 - 2 uM, ligand 1.6 ng/ml
  ability of recombinant RTK ligand to confer resistance: 0.99
C32, PLX4720 - 2 uM, ligand 6.25 ng/ml
  ability of recombinant RTK ligand to confer resistance: 1.02
C32, PLX4720 - 2 uM, ligand 25 ng/ml
  ability of recombinant RTK ligand to confer resistance: 1.01
C32, PLX4720 - 2 uM, ligand 100 ng/ml
  ability of recombinant RTK ligand to confer resistance: 0.94
Colo 829, PD184352 - 1 uM, ligand 0.4 ng/ml
  ability of recombinant RTK ligand to confer resistance: 1.03
Colo 829, PD184352 - 1 uM, ligand 1.6 ng/ml
  ability of recombinant RTK ligand to confer resistance: 0.99
Colo 829, PD184352 - 1 uM, ligand 6.25 ng/ml
  ability of recombinant RTK ligand to confer resistance: 0.98
Colo 829, PD184352 - 1 uM, ligand 25 ng/ml
  ability of recombinant RTK ligand to confer resistance: 0.98
Colo 829, PD184352 - 1 uM, ligand 100 ng/ml
  ability of recombinant RTK ligand to confer resistance: 0.93
Colo 829, PLX4720 - 2 uM, ligand 0.4 ng/ml
  ability of recombinant RTK ligand to confer resistance: 1.02
Colo 829, PLX4720 - 2 uM, ligand 1.6 ng/ml
  ability of recombinant RTK ligand to confer resistance: 1.00
Colo 829, PLX4720 - 2 uM, ligand 6.25 ng/ml
  ability of recombinant RTK ligand to confer resistance: 0.96
Colo 829, PLX4720 - 2 uM, ligand 25 ng/ml
  ability of recombinant RTK ligand to confer resistance: 0.95
Colo 829, PLX4720 - 2 uM, ligand 100 ng/ml
  ability of recombinant RTK ligand to confer resistance: 0.94
G-361, PD184352 - 1 uM, ligand 0.4 ng/ml
  ability of recombinant RTK ligand to confer resistance: 1.09
G-361, PD184352 - 1 uM, ligand 1.6 ng/ml
  ability of recombinant RTK ligand to confer resistance: 0.95
G-361, PD184352 - 1 uM, ligand 6.25 ng/ml
  ability of recombinant RTK ligand to confer resistance: 1.03
G-361, PD184352 - 1 uM, ligand 25 ng/ml
  ability of recombinant RTK ligand to confer resistance: 0.91
G-361, PD184352 - 1 uM, ligand 100 ng/ml
  ability of recombinant RTK ligand to confer resistance: 0.91
G-361, PLX4720 - 2 uM, ligand 0.4 ng/ml
  ability of recombinant RTK ligand to confer resistance: 0.98
G-361, PLX4720 - 2 uM, ligand 1.6 ng/ml
  ability of recombinant RTK ligand to confer resistance: 0.82
G-361, PLX4720 - 2 uM, ligand 6.25 ng/ml
  ability of recombinant RTK ligand to confer resistance: 1.04
G-361, PLX4720 - 2 uM, ligand 25 ng/ml
  ability of recombinant RTK ligand to confer resistance: 0.89
G-361, PLX4720 - 2 uM, ligand 100 ng/ml
  ability of recombinant RTK ligand to confer resistance: 0.87
SK-MEL-5, PD184352 - 1 uM, ligand 0.4 ng/ml
  ability of recombinant RTK ligand to confer resistance: 1.01
SK-MEL-5, PD184352 - 1 uM, ligand 1.6 ng/ml
  ability of recombinant RTK ligand to confer resistance: 0.97
SK-MEL-5, PD184352 - 1 uM, ligand 6.25 ng/ml
  ability of recombinant RTK ligand to confer resistance: 1.01
SK-MEL-5, PD184352 - 1 uM, ligand 25 ng/ml
  ability of recombinant RTK ligand to confer resistance: 0.96
SK-MEL-5, PD184352 - 1 uM, ligand 100 ng/ml
  ability of recombinant RTK ligand to confer resistance: 0.97
SK-MEL-5, PLX4720 - 2 uM, ligand 0.4 ng/ml
  ability of recombinant RTK ligand to confer resistance: 1.07
SK-MEL-5, PLX4720 - 2 uM, ligand 1.6 ng/ml
  ability of recombinant RTK ligand to confer resistance: 1.02
SK-MEL-5, PLX4720 - 2 uM, ligand 6.25 ng/ml
  ability of recombinant RTK ligand to confer resistance: 1.07
SK-MEL-5, PLX4720 - 2 uM, ligand 25 ng/ml
  ability of recombinant RTK ligand to confer resistance: 1.08
SK-MEL-5, PLX4720 - 2 uM, ligand 100 ng/ml
  ability of recombinant RTK ligand to confer resistance: 1.04
SK-MEL-28, PD184352 - 1 uM, ligand 0.4 ng/ml
  ability of recombinant RTK ligand to confer resistance: 1.04
SK-MEL-28, PD184352 - 1 uM, ligand 1.6 ng/ml
  ability of recombinant RTK ligand to confer resistance: 1.04
SK-MEL-28, PD184352 - 1 uM, ligand 6.25 ng/ml
  ability of recombinant RTK ligand to confer resistance: 0.91
SK-MEL-28, PD184352 - 1 uM, ligand 25 ng/ml
  ability of recombinant RTK ligand to confer resistance: 0.97
SK-MEL-28, PD184352 - 1 uM, ligand 100 ng/ml
  ability of recombinant RTK ligand to confer resistance: 1.07
SK-MEL-28, PLX4720 - 2 uM, ligand 0.4 ng/ml
  ability of recombinant RTK ligand to confer resistance: 0.97
SK-MEL-28, PLX4720 - 2 uM, ligand 1.6 ng/ml
  ability of recombinant RTK ligand to confer resistance: 1.12
SK-MEL-28, PLX4720 - 2 uM, ligand 6.25 ng/ml
  ability of recombinant RTK ligand to confer resistance: 0.99
SK-MEL-28, PLX4720 - 2 uM, ligand 25 ng/ml
  ability of recombinant RTK ligand to confer resistance: 1.08
SK-MEL-28, PLX4720 - 2 uM, ligand 100 ng/ml
  ability of recombinant RTK ligand to confer resistance: 0.99

Source: patent publication US20140348819A1, “Methods of Treating Cancer” (Dana-Farber Cancer Institute, Inc., priority 2011, published 2014)
